{"source": "patent US20240398899A1", "about": "(priority 2021, published 2024)", "molecules": {"B1": {"name": "SEQ ID NO: 1: variant of the S. rolfsii lectin amino acid sequence (reported as Rec-2 in WO2010/095143) (protein)", "chain": "TYKITVRVYQTNPDAFFHPVEKTVWKYANGGTWTITDDQHVLTMGGSGTSGTLRFHADNGESFTATFGVHNYKRWCDIVTNLAADETGMVINQQYYSQKNREEARERQLSNYQVKNAKGRNFQIVYTEAEGNDLHANLIIG"}}, "key": {"neuronal cells (pc12) [1]": {"system": "neuronal cells (pc12)", "experiment": "Neurite formation, basal model", "type": "cell-based, rat", "description": "(§1) Cells were counted using haemocytometer and plated in 24-well plates at the densities corresponding to 1×10^4 cells/well/500 μl of the growth medium. The cells were then incubated for 48 h in 5% CO2 incubator at 37° C. Effect of Recombinant Lectin having SEQ ID NO: 1 on neurite formation was evaluated in both basal and MPP+ damage induced model.\nFor basal model the percent increase in neurite formation was determined as follows"}, "neuronal cells (pc12) [2]": {"system": "neuronal cells (pc12)", "experiment": "Neurite formation against MPP+ induced damage", "type": "cell-based, rat", "settings": "NGF (200 ng/ml) + MPP (100 μM)", "description": "as §1\nThe percent protection in neurite formation against MPP+ induced damage was determined as follows:\n[formula] • Where, • A=No of neurites in Cells treated with NGF+SEQ ID NO: 1+MPP+ • B=No of neurites in Cells treated with NGF+MPP+ • C=No of Neurites Cells treated with NGF alone"}, "Acetylcholinesterase": {"system": "Acetylcholinesterase", "settings": "mice; for brain Acetylcholine esterase Mean: scopolamine 2.5 mg/kg i.p.", "description": "Healthy male Swiss albino mice (n=48) were selected and randomized based on body weight (n=8 per Group) into 6 groups as mentioned in table no-1. The control group G1 was treated intravenously with vehicle daily till the experiment completion. Group G2 was considered as negative control and treated with vehicle. […] Group G4, G5 &G6 animals were treated with the test item recombinant lectin protein having SEQ ID NO: 1 at the dose of 0.5 mg/kg, 0.25 mg/kg and 0.125 mg/kg, respectively. All the test items were given intravenously (i.v) daily at the dose volume of 5 ml/kg for 14 Days. The body weight was recorded daily throughout the experimental period. […] One hour after the last dose of test items (on Day 14) all the animals were injected with scopolamine hydrobromide at the dose of 2.5 mg/kg, i.p., except the normal control group G1. Passive avoidance test was conducted 30 min after scopolamine injection.\nAfter passive avoidance test screening models of memory, the animals were sacrificed humanely. The whole brain was carefully removed from the skull and weighed. Brain was dissected into two portions\n10% w/v brain homogenate (100 mg/mL) was prepared by homogenizing it in ice-chilled phosphate buffer. The homogenate was subsequently centrifuged using a refrigerated centrifuge at 3000 rpm for 10 min, and the supernatant was separated and used for the biochemical estimations.\nFollowing biomarkers was estimated using ELISA kit as per manufacturer's instruction. • Brain NGF (Nerve Growth Factor), CUSABIO, Catalog No. CSB-E04684m • Acetylcholinesterase, CUSABIO, Catalog No. CSB-E17521m • TNF alpha, CUSABIO, Catalog No. CSB-E04741m"}, "RAGE": {"system": "RAGE", "experiment": "Alzheimer's biomarker multiplex analysis, scopolamine-damaged SH-SY5Y", "type": "cell-based, human", "settings": "Scopolamine (4 mM)", "description": "(§2) After overnight incubation as in the previous examples, cells were treated with recombinant lectin protein having SEQ ID NO: 1 at different concentrations ranging from 0.001 μg/ml-1 μg/ml for 24 h for Parkinson disease and 0.01 μg/ml-25 μg/ml for 24 h for Alzheimer's disease. • Parkinson Disease: After 24 h of pre-treatment with recombinant lectin protein having SEQ ID NO: 1, cells were exposed (MPP+) for another 24 h. Cells treated with MPP+Iodide were included as Control. […] The cells treated with Galantamine were included as positive Control.\n(§3) The levels of markers were determined by multiplex analysis as: Cell culture supernatants were diluted (1:2) with Calibrator Diluent. 50 μl of standard or sample was added per well. 50 μl of the microparticle cocktail was added to each well of the microplate and covered with a foil plate sealer. The plate was incubated for 2 hours at room temperature on a horizontal orbital microplate shaker. The plate was washed using a magnetic device designed to accommodate a microplate. Washing was done by applying the magnet to the bottom of the microplate, allowing 1 minute before removing the liquid, filling each well with wash buffer (100 μl) and allowing 1 minute before removing the liquid again. 50 μl of diluted Biotin-Antibody Cocktail was added to each well. Covered the plate with a foil plate sealer and incubated for 1 hour at room temperature on the shaker. Repeated the wash step. 50 μl of diluted Streptavidin-PE was added to each well. The plate was securely covered with a foil plate sealer and incubated for 30 minutes at room temperature on the shaker. Repeated the wash step. The microparticles were resuspended by adding 100 μl of Wash Buffer to each well. The plate was incubated for 2 minutes on the shaker and read within 90 minutes using Magpix® multiplex machine. Levels of biomarkers for Parkinson's and Alzheimer's disease were estimated using Magpix® multiplex machine.\n(§4) For Alzheimer's disease the percent modulation in each sample was determined as follows: […]"}, "b-NGF": {"system": "b-NGF", "experiment": "Alzheimer's biomarker multiplex analysis, scopolamine-damaged SH-SY5Y", "type": "cell-based, human", "settings": "Scopolamine (4 mM)", "description": "as §2, §3, §4"}, "MPO": {"system": "MPO", "experiment": "Alzheimer's biomarker multiplex analysis, scopolamine-damaged SH-SY5Y", "type": "cell-based, human", "settings": "Scopolamine (4 mM)", "description": "as §2, §3, §4"}}, "note": "Where two headings read alike, the source gives them in different places.", "data": [{"molecule": "B1", "values": [{"measurement": "% Protection in the formation of Neurites (w.r.t. MPP+)", "setting": "neuronal cells (pc12) [1]; 0.001 μg/ml", "result": 54.7, "unit": "%"}, {"measurement": "Average No. of Neurites", "setting": "neuronal cells (pc12) [1]; 0.001 μg/ml", "result": 27}, {"measurement": "% Protection in the formation of Neurites (w.r.t. MPP+)", "setting": "neuronal cells (pc12) [1]; 0.01 μg/ml", "result": 47.2, "unit": "%"}, {"measurement": "Average No. of Neurites", "setting": "neuronal cells (pc12) [1]; 0.01 μg/ml", "result": 26}, {"measurement": "% Protection in the formation of Neurites (w.r.t. MPP+)", "setting": "neuronal cells (pc12) [1]; 0.1 μg/ml", "result": 18.9, "unit": "%"}, {"measurement": "Average No. of Neurites", "setting": "neuronal cells (pc12) [1]; 0.1 μg/ml", "result": 21}, {"measurement": "% Protection in the formation of Neurites (w.r.t. MPP+)", "setting": "neuronal cells (pc12) [1]; 5 μg/ml", "result": 34, "unit": "%"}, {"measurement": "Average No. of Neurites", "setting": "neuronal cells (pc12) [1]; 5 μg/ml", "result": 24}, {"measurement": "% Protection in formation of Neurites (w.r.t. MPP+)", "setting": "neuronal cells (pc12) [2]; 0.001 μg/ml", "result": 7.3, "unit": "%"}, {"measurement": "Average No. of Neurites", "setting": "neuronal cells (pc12) [2]; 0.001 μg/ml", "result": 21}, {"measurement": "% Protection in formation of Neurites (w.r.t. MPP+)", "setting": "neuronal cells (pc12) [2]; 0.01 μg/ml", "result": 43.6, "unit": "%"}, {"measurement": "Average No. of Neurites", "setting": "neuronal cells (pc12) [2]; 0.01 μg/ml", "result": 28}, {"measurement": "% Protection in formation of Neurites (w.r.t. MPP+)", "setting": "neuronal cells (pc12) [2]; 0.1 μg/ml", "result": 76.4, "unit": "%"}, {"measurement": "Average No. of Neurites", "setting": "neuronal cells (pc12) [2]; 0.1 μg/ml", "result": 34}, {"measurement": "% Protection in formation of Neurites (w.r.t. MPP+)", "setting": "neuronal cells (pc12) [2]; 1 μg/ml", "result": 78.2, "unit": "%"}, {"measurement": "Average No. of Neurites", "setting": "neuronal cells (pc12) [2]; 1 μg/ml", "result": 34}, {"measurement": "% Protection in formation of Neurites (w.r.t. MPP+)", "setting": "neuronal cells (pc12) [2]; 5 μg/ml", "result": 58.2, "unit": "%"}, {"measurement": "Average No. of Neurites", "setting": "neuronal cells (pc12) [2]; 5 μg/ml", "result": 30}, {"measurement": "effect on scopolamine-increased AChE activity in the brain", "setting": "Acetylcholinesterase; 0.5 mg/kg pretreatment", "result": "significantly (p<0.001) attenuated"}, {"measurement": "brain Acetylcholine esterase Mean", "setting": "Acetylcholinesterase; G4: 0.5 mg/kg i.v. qdx14", "result": 4.47, "unit": "mU/ml"}, {"measurement": "brain Acetylcholine esterase Mean", "setting": "Acetylcholinesterase; G5: 0.25 mg/kg i.v. qdx14", "result": 6.27, "unit": "mU/ml"}, {"measurement": "brain Acetylcholine esterase Mean", "setting": "Acetylcholinesterase; G6: 0.125 mg/kg i.v. qdx14", "result": 6.59, "unit": "mU/ml"}, {"measurement": "% Change of Biomarkers markers (wrt Control) RAGE", "setting": "RAGE; 0.01 μg/mL", "result": "−19.3", "unit": "%"}, {"measurement": "% Change of Biomarkers markers (wrt Control) RAGE", "setting": "RAGE; 0.1 μg/mL", "result": 0, "unit": "%"}, {"measurement": "% Change of Biomarkers markers (wrt Control) RAGE", "setting": "RAGE; 1 μg/mL", "result": "−19.3", "unit": "%"}, {"measurement": "% Change of Biomarkers markers (wrt Control) RAGE", "setting": "RAGE; 10 μg/mL", "result": 16.3, "unit": "%"}, {"measurement": "% Change of Biomarkers markers (wrt Control) RAGE", "setting": "RAGE; 25 μg/mL", "result": "−3", "unit": "%"}, {"measurement": "% Change of Biomarkers markers (wrt Control) b-NGF", "setting": "b-NGF; 0.01 μg/mL", "result": 0, "unit": "%"}, {"measurement": "% Change of Biomarkers markers (wrt Control) b-NGF", "setting": "b-NGF; 0.1 μg/mL", "result": 0, "unit": "%"}, {"measurement": "% Change of Biomarkers markers (wrt Control) b-NGF", "setting": "b-NGF; 1 μg/mL", "result": "−9", "unit": "%"}, {"measurement": "% Change of Biomarkers markers (wrt Control) b-NGF", "setting": "b-NGF; 10 μg/mL", "result": 41.1, "unit": "%"}, {"measurement": "% Change of Biomarkers markers (wrt Control) b-NGF", "setting": "b-NGF; 25 μg/mL", "result": 88.9, "unit": "%"}, {"measurement": "% Change of Biomarkers markers (wrt Control) MPO", "setting": "MPO; 0.01 μg/mL", "result": 1.7, "unit": "%"}, {"measurement": "% Change of Biomarkers markers (wrt Control) MPO", "setting": "MPO; 0.1 μg/mL", "result": "−64", "unit": "%"}, {"measurement": "% Change of Biomarkers markers (wrt Control) MPO", "setting": "MPO; 1 μg/mL", "result": "−45.9", "unit": "%"}, {"measurement": "% Change of Biomarkers markers (wrt Control) MPO", "setting": "MPO; 10 μg/mL", "result": 0, "unit": "%"}, {"measurement": "% Change of Biomarkers markers (wrt Control) MPO", "setting": "MPO; 25 μg/mL", "result": 0, "unit": "%"}]}]}
